Laboratory results: patent US20200299415A1

What was measured:
[1] = molecular target: cell surface receptors in membranes prepared from SH-SY5Y cells; experiment: radioligand saturation binding on SH-SY5Y cell membranes; lower end of range
[2] = molecular target: cell surface receptors in membranes prepared from SH-SY5Y cells; experiment: radioligand saturation binding on SH-SY5Y cell membranes, filtration, nonlinear regression; lower end of range
[3] = molecular target: cell surface receptors in membranes prepared from SH-SY5Y cells; experiment: radioligand saturation binding on SH-SY5Y cell membranes, filtration, nonlinear regression; upper end of printed range
[4] = molecular target: cell surface receptors in membranes prepared from SH-SY5Y cells; experiment: radioligand saturation binding on SH-SY5Y cell membranes; upper end of printed range

Substance: [3H][Dmt1]DALDA (2',6'-Dmt-D-Arg-Phe-Lys-NH2, tritiated) (peptide)
- Bmax (fmol/mg protein) [1]: 88
- Kd [2]: 87 pM
- Kd [3]: 149 pM
- Bmax (fmol/mg protein) [4]: 104
